Experimental data as given in PMC6856157.

Biological target: V1N, hybrid peptide of the collagen domain (POG)8 and the cell penetrating peptide domain (RRG)2, without the FITC reporter
Experiment: circular dichroism; V1N/siRNA complex in Milli-Q water, 90 uM V1N and 5 uM siRNA, equilibrated 30 min at 25 °C or 37 °C; positive peak at 224 nm

stoichiometry N: 3
Substance: V1N, hybrid peptide of the collagen domain (POG)8 and the cell penetrating peptide domain (RRG)2, without the FITC reporter
